In patent US20140303084:
Where a chain is given by its changes, count along the chain named.

Columns and labels:
ALTCLASYCWLF = test system: T1, ALTCLASYCWLF
T1 sequence: ALTCLASYCWLF

Ac-K-k-MeLeu-TCLASYCWLF = test system: T2, Ac-K-k-MeLeu-TCLASYCWLF
T2 sequence: KKLTCLASYCWLF

[1] = test system: T3, C(N-PEG5kmaleimide)-PEG4-LVPR-PEG4-rRAPGKLTCLASYCWLFWTGIA
T3 sequence: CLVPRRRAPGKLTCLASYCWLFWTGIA

[2] = test system: T4, C(PEG5k)GGG-RRAPGKLT-Asp-LASY-Lys-WLFWTGIA
T4 sequence: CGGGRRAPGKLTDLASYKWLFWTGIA

[3] = test system: T5, CGGG-RRAPGKLT-Asp-LASY-Lys-WLFWTGIA
T5 sequence: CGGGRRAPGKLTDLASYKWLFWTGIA

[4] = test system: T6, CGGGLVPRGGG-RRAPGKLT-Asp-LASY-Lys-WLFWTGIA
T6 sequence: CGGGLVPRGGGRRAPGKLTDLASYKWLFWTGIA

GDSGRKLSCLGSYCWLSVQFMA = test system: T7, GDSGRKLSCLGSYCWLSVQFMA
T7 sequence: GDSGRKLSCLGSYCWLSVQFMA

HQQRRKLTCLAGYCWLFVLGPS = test system: T8, HQQRRKLTCLAGYCWLFVLGPS
T8 sequence: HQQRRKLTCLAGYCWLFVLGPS

KLSCQAGQCWVF = test system: T9, KLSCQAGQCWVF
T9 sequence: KLSCQAGQCWVF

KLT-Glu-LASY-Lys-WLF = test system: T10, KLT-Glu-LASY-Lys-WLF
T10 sequence: KLTELASYKWLF

KLTCLASYAWLF = test system: T11, KLTCLASYAWLF
T11 sequence: KLTCLASYAWLF

KLTCLASYC-Nal-LF = test system: T12, KLTCLASYC-Nal-LF
T12 sequence: KLTCLASYCXLF

KLTCLASYCQLF = test system: T13, KLTCLASYCQLF
T13 sequence: KLTCLASYCQLF

KLTCLASYCW-Nle-F = test system: T14, KLTCLASYCW-Nle-F
T14 sequence: KLTCLASYCWXF

KLTCLASYCWLf [5] = test system: T15, KLTCLASYCWLf
T15 sequence: KLTCLASYCWLF

KLTCLGSYCWLF = test system: T16, KLTCLGSYCWLF
T16 sequence: KLTCLGSYCWLF

KLTCLVSYCWLF = test system: T17, KLTCLVSYCWLF
T17 sequence: KLTCLVSYCWLF

KLtCLASYCWLF [6] = test system: T18, KLtCLASYCWLF
T18 sequence: KLTCLASYCWLF

[7] = test system: T19, LQLSYGEQRQ SRAPG KLTCLASYCWLFWTGIA
T19 sequence: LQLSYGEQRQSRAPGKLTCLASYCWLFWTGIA

MAGMLKLTCFASYCGLFPLVSS = test system: T20, MAGMLKLTCFASYCGLFPLVSS
T20 sequence: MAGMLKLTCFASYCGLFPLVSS

[8] = test system: T21, PNLLRVRTSE VRNPG KLTCLASYCWLFWTGIA
T21 sequence: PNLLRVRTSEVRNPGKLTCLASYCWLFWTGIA

[9] = test system: T22, PRIRTVGPGSRRASGKLTCLASYCWLFWTGIA
T22 sequence: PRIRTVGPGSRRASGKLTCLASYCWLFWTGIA

[10] = test system: T23, PRIRTVGPGSRSASGKLTCLASYCWLFWSGIA
T23 sequence: T22 sequence with R12S, T29S

[11] = test system: T24, PSIRTVGPGSRSASGKLTCLASYCWLFWTGIA
T24 sequence: T22 sequence with R2S, R12S

RAPGKLQCLASYCWLFWTGIA = test system: T25, RAPGKLQCLASYCWLFWTGIA
T25 sequence: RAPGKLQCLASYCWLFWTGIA

RKAPGKLQCLASYCWLFWTGIA = test system: T26, RKAPGKLQCLASYCWLFWTGIA
T26 sequence: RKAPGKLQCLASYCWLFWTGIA

[12] = test system: T27, RRAPGKLQCLASYCWLFWT-Aib-IA
T27 sequence: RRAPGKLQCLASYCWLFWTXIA

RRAPGKLQCLASYCWLFWTGIK = test system: T28, RRAPGKLQCLASYCWLFWTGIK
T28 sequence: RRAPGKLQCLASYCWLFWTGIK

RRAPGKLQCLASYCWLFWTGLA = test system: T29, RRAPGKLQCLASYCWLFWTGLA
T29 sequence: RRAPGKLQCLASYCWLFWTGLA

RRAPGKLQCLASYCWLFWTG = test system: T30, RRAPGKLQCLASYCWLFWTG
T30 sequence: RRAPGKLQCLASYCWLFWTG

[13] = test system: T31, RRAPGKLT-Asp-LASY-Lys-WLFWTGIA-COOH
T31 sequence: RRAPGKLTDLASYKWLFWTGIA

[14] = test system: T32, RRAPGKLTCLASYACLFWTGIA-CONH2
T32 sequence: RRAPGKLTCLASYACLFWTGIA

[15] = test system: T33, RRAPGKLTCLASYACLFWTGIA-COOH
T33 sequence: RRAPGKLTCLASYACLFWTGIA

[16] = test system: T34, RRAPGKLTCLASYCWLF ATGVT FPQIWAIPSP
T34 sequence: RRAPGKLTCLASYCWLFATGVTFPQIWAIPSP

[17] = test system: T35, RRAPGKLTCLASYCWLF WAGYP SLRGSLLVGV
T35 sequence: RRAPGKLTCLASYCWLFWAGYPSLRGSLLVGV

[18] = test system: T36, RRAPGKLTCLASYCWLF WSGIA PQPPNMRPSV
T36 sequence: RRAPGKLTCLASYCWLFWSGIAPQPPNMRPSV

[19] = test system: T37, RRAPGKLTCLASYCWLF WTGLA STLYKTYTRE
T37 sequence: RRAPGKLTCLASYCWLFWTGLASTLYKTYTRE

[20] = test system: T38, RRAPGKLTCLASYCWLF WTGLL DYPTPQSHEP
T38 sequence: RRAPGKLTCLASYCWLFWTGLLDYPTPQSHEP

[21] = test system: T39, RRAPGKLTCLASYCWLFWT-Sar-IA
T39 sequence: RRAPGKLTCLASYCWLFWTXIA

[22] = test system: T40, RRAPGKLTCLASYCWLFWTGIA-PEG4
T40 sequence: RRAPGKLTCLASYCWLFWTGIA

RRAPGKLTCLASYCWLfWTGIA = test system: T41, RRAPGKLTCLASYCWLfWTGIA
T41 sequence: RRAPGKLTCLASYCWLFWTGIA

[23] = test system: T42, SKAGRPISPDrRAAGKLTCLASYCWLFWTGIA
T42 sequence: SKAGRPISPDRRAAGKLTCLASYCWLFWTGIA

[24] = test system: T43, SKQGRPISPArRAAGKLTCLASYCWLFWTGIA
T43 sequence: T42 sequence with A3Q, D10A

[25] = test system: T44, SKQGRPISPDRRAAGKLTCLASYCWLFWTGIA-PEG2-K(PEG2-Biotin)
T44 sequence: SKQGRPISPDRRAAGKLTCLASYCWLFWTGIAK

[26] = test system: T45, SKQGRPISPDrRAAGKLTCLASYCWLFWT
T45 sequence: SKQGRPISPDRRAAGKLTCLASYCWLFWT

[27] = test system: T46, SKQGRPISPDrRAAGKLTCLASYCWLFW
T46 sequence: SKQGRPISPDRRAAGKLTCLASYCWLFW

[28] = test system: T47, SRIrTVSPGSrSASGKSTCLASYCWLFWTGIA
T47 sequence: T22 sequence with P1S, G7S, R12S, L17S

k-MeLeu-TCLASYCWLA = test system: T48, k-MeLeu-TCLASYCWLA
T48 sequence: KLTCLASYCWLA

rRAAGKATCLASACW LAATGIA = test system: T49, rRAAGKATCLASACW LAATGIA
T49 sequence: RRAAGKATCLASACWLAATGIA

Question: For human Factor IXa, which “Vmax, FXa generation assay; (++) means 1-2” value (“Vmax … (++) means 1-2” below) (ALTCLASYCWLF) is on record?
Answer: (++)

Question: And the Vmax, FXa generation assay (Ac-K-k-MeLeu-TCLASYCWLF)?
Answer: > 2

Question: And the “Vmax … (++) means 1-2” value [1]?
Answer: (++)

Question: And the “Vmax … (++) means 1-2” value [2]?
Answer: (++)

Question: And the Vmax, FXa generation assay [3]?
Answer: > 2

Question: What about the Vmax, FXa generation assay [4] of the same substance?
Answer: > 2

Question: What about the “Vmax … (++) means 1-2” value (GDSGRKLSCLGSYCWLSVQFMA) of the same substance?
Answer: (++)

Question: What about the Vmax, FXa generation assay (HQQRRKLTCLAGYCWLFVLGPS) of the same substance?
Answer: > 2

Question: And the Vmax, FXa generation assay (KLSCQAGQCWVF)?
Answer: > 2

Question: What about the “Vmax … (++) means 1-2” value (KLT-Glu-LASY-Lys-WLF) of the same substance?
Answer: (++)

Question: What about the “Vmax … (++) means 1-2” value (KLTCLASYAWLF) of the same substance?
Answer: (++)

Question: And the Vmax, FXa generation assay (KLTCLASYC-Nal-LF)?
Answer: > 3

Question: What about the Vmax, FXa generation assay (KLTCLASYCQLF) of the same substance?
Answer: > 3

Question: What about the Vmax, FXa generation assay (KLTCLASYCW-Nle-F) of the same substance?
Answer: > 2

Question: And the Vmax, FXa generation assay (KLTCLASYCWLf [5])?
Answer: > 3

Question: What about the Vmax, FXa generation assay (KLTCLGSYCWLF) of the same substance?
Answer: > 2

Question: And the Vmax, FXa generation assay (KLTCLVSYCWLF)?
Answer: > 2

Question: And the Vmax, FXa generation assay (KLtCLASYCWLF [6])?
Answer: > 2

Question: And the “Vmax … (++) means 1-2” value [7]?
Answer: (++)

Question: What about the “Vmax … (++) means 1-2” value (MAGMLKLTCFASYCGLFPLVSS) of the same substance?
Answer: (++)

Question: And the “Vmax … (++) means 1-2” value [8]?
Answer: (++)

Question: What about the Vmax, FXa generation assay [9] of the same substance?
Answer: > 3

Question: What about the Vmax, FXa generation assay [10] of the same substance?
Answer: > 3

Question: What about the Vmax, FXa generation assay [11] of the same substance?
Answer: > 3

Question: And the “Vmax … (++) means 1-2” value (RAPGKLQCLASYCWLFWTGIA)?
Answer: (++)

Question: What about the Vmax, FXa generation assay (RKAPGKLQCLASYCWLFWTGIA) of the same substance?
Answer: > 2

Question: And the “Vmax … (++) means 1-2” value [12]?
Answer: (++)

Question: And the “Vmax … (++) means 1-2” value (RRAPGKLQCLASYCWLFWTGIK)?
Answer: (++)

Question: And the Vmax, FXa generation assay (RRAPGKLQCLASYCWLFWTGLA)?
Answer: > 2

Question: What about the Vmax, FXa generation assay (RRAPGKLQCLASYCWLFWTG) of the same substance?
Answer: > 2

Question: What about the “Vmax … (++) means 1-2” value [13] of the same substance?
Answer: (++)

Question: What about the Vmax, FXa generation assay [14] of the same substance?
Answer: > 3

Question: And the Vmax, FXa generation assay [15]?
Answer: > 2

Question: What about the Vmax, FXa generation assay [16] of the same substance?
Answer: > 3

Question: And the Vmax, FXa generation assay [17]?
Answer: > 3

Question: What about the Vmax, FXa generation assay [18] of the same substance?
Answer: > 3

Question: What about the “Vmax … (++) means 1-2” value [19] of the same substance?
Answer: (++)

Question: And the Vmax, FXa generation assay [20]?
Answer: > 2

Question: What about the Vmax, FXa generation assay [21] of the same substance?
Answer: > 3

Question: What about the Vmax, FXa generation assay [22] of the same substance?
Answer: > 2

Question: And the “Vmax … (++) means 1-2” value (RRAPGKLTCLASYCWLfWTGIA)?
Answer: (++)

Question: What about the Vmax, FXa generation assay [23] of the same substance?
Answer: > 2

Question: And the Vmax, FXa generation assay [24]?
Answer: > 3

Question: What about the “Vmax … (++) means 1-2” value [25] of the same substance?
Answer: (++)

Question: What about the Vmax, FXa generation assay [26] of the same substance?
Answer: > 2

Question: What about the Vmax, FXa generation assay [27] of the same substance?
Answer: > 3

Question: What about the Vmax, FXa generation assay [28] of the same substance?
Answer: > 3

Question: And the Vmax, FXa generation assay (k-MeLeu-TCLASYCWLA)?
Answer: > 2

Question: What about the Vmax, FXa generation assay (rRAAGKATCLASACW LAATGIA) of the same substance?
Answer: > 3
